Data published in article PMC11145656 (Structure (London, England : 1993), 2023).

B1: Ab246 IgG1 (antibody, V domains shown)
VH: QVQLQESGPGLVKPSETLSLTCSVSGDSIGTYYWSWIRQSPEKGLEWIGYIHHSGKTNYNPSLKSRVTMSVDTSKNQFSLKLTSVTAADTAVYYCARSPIGYCSSTKCYIDKPFDSWGQGTLVTVSS
VL: QAVLTQPSSLSASPGASASLTCTLRGGINVVNQRLYWYQQKPGSPPRFLLKYKSDSDNFLGSGVPSRFSGSKDASANAGILLISEVQSEDEADYYCMMWHSSAYVFGGGTKLTVL
B2: CR3022 IgG1 (antibody, V domains shown)
VH: EVQLVQSGTEVKKPGESLKISCKGSGYGFITYWIGWVRQMPGKGLEWMGIIYPGDSETRYSPSFQGQVTISADKSINTAYLQWSSLKASDTAIYYCAGGSGISTPMDVWGQGTTVTVSS
VL: not shown

Columns and labels:
Assay in all cases: BLI
[1] = target: SARSr-CoV Rs4874-GCN S protein (Bat SARS-like coronavirus isolate Rs4874, strain)
SARS-CoV-1 RBD = SARS-CoV-1 RBD (SARS-CoV-1)
[2] = target: SARSr-CoV Rs4231-T4 S protein (bat SARS-related CoV Rs4231)

| Binder | binding result [1] | binding result (SARS-CoV-1 RBD) | binding result [2] |
| --- | --- | --- | --- |
| B1 | binds | binds | – |
| B2 | binds | – | binds |
